According to patent US20040096935A1:
“And” between values parts separate entries of the source, which are not always exact repeats. Equal entries are not always repeated.

How the values were obtained:
[1] = target: IL-17 receptor (immobilised receptor of the first BIAcore experiment of Example 8) (UniProt Q96F46); assay: BIAcore SPR; IL-17 (R&D) at 25 ug/mL over immobilised receptor
[2] = target: IL-17 receptor (immobilised receptor of the first BIAcore experiment of Example 8) (UniProt Q96F46); assay: BIAcore SPR; conditioned CHO supernatant over immobilised receptor; IL-20 concentration estimated ~25 ug/mL; pC4 vector control medium ~20 RU

Sequence of recombinant human IL-17 (R&D Systems) (Q16552 20-155 limits assumed): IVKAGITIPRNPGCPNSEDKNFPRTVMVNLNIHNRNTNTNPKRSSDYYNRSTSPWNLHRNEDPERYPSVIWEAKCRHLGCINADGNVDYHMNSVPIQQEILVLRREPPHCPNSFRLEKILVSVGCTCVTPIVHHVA

| binding response (RU) [1] [RU] | binding response (RU) [2] | Molecule |
| --- | --- | --- |
| 60 | – | recombinant human IL-17 (R&D Systems) (from UniProt Q16552 20-155) (ligand) |
| – | 115 RU and 65 RU | recombinant human IL-20 expressed in CHO cells (ligand) RSPKSKRKGQGRPGPLAPGPHQVPLDLVSRMKPYARMEEYERNIEEMVAQLRNSSELAQRKCEVNLQLWMSNKRSLSPWGYSINHDPSRIPVDLPEARCLCLGCVNPFTMQEDRSMVSVPVFSQVPVRRRLCPPPPRTGPCRQRAVMETIAVGCTCIF |
